{"source": "patent US20250304973", "about": "“HIGH-AFFINITY THROMBIN APTAMERS AND METHODS OF USE” (Ayass Bioscience LLC, published 2025)", "key": {"alpha-thrombin (native)": {"target": "alpha-thrombin (native) (Homo sapiens, UniProt P00734;P00734 P00734:315-363,P00734:364-622)", "test": "ELONA; 20 mM Tris pH 7.5, 150 mM NaCl, 0.1% BSA, 0.1% Tween 20, salmon sperm DNA, RT; competed by 100-fold unlabeled aptamer"}, "thrombin": {"target": "thrombin (Rattus norvegicus, UniProt P18292;P18292 P18292:311-359,P18292:360-617)", "test": "BLI; biotinylated aptamer on streptavidin sensor, 1:1 fit; printed as \"-0.6 nM\"", "details": "label: 5' biotin (ELISA, BLI); predicted hairpin, possible G4", "description": "The biosensors were then exposed to varying concentrations of rat thrombin protein, allowing real-time monitoring of thrombin binding to the aptamer. Kinetic parameters were derived by fitting the BLI binding curves to a 1:1 binding model."}}}
{"binder": "GCGGTGTTGCTGGGGTTGGGAGGTTGGAGGAAGCAATCGC (ssDNA)", "note": "[AYA1809002]", "values": [{"measurement": "Kd", "setting": "alpha-thrombin (native)", "result": 10, "unit": "nM"}, {"measurement": "Kd", "setting": "thrombin", "result": "~0.6", "unit": "nM"}]}
